Laboratory results taken from patent US20020058247A1 (TRIPEP, published 2002).

target: T1, truncated recombinant form of HBeAg containing nine residues of pre-core and the 150 first residues of HBcAg (hepatitis B virus, UniProt P03146 1-150); experiment: EIA, support-bound peptide, HBeAg 2.5 ug/ml
T1 construct: domain: nine residues of pre-core;range 1-150; also called hepatitis B virus e antigen
T1 sequence (P03146 1-150): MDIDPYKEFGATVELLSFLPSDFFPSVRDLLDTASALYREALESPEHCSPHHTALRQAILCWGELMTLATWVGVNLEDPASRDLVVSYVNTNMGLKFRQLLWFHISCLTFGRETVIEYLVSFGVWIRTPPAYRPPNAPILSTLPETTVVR

Binder | OD [OD]
VKPGASVKISCKASGYSFTG (also called Peptide # 25) [VKPGASVKISCKASGYSFTG (SEQ. ID. No. 28)] | 0.115
LAVSLGQRATISCRASQSVS [LAVSLGQRATISCRASQSVS (SEQ. ID. No. 16)] | 0.03

target: T2, Full length recombinant HBcAg (rHBcAg) encompassing residues 1-183 (hepatitis B virus, UniProt P03146 1-183); experiment: competition EIA, HBcAg coated 1 ug/ml, peptide 25 ug/ml before mAb 4-2 (competitor); OD of bound mAb
T2 construct: range 1-183; also called hepatitis B virus core antigen
T2 sequence (P03146 whole entry, the tested form may be a part): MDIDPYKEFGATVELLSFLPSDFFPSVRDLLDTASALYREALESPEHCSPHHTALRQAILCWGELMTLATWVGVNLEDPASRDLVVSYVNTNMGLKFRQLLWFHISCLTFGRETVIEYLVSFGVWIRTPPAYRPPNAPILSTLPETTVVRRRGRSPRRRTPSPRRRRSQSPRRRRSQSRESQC

Binder | OD at 490 nm [OD]
VKPGASVKISCKASGYSFTG (also called Peptide # 25) [VKPGASVKISCKASGYSFTG (SEQ. ID. No. 28)] | 0.359
LAVSLGQRATISCRASQSVS [LAVSLGQRATISCRASQSVS (SEQ. ID. No. 16)] | 0.429

target: T2, Full length recombinant HBcAg (rHBcAg) …; experiment: EIA, support-bound peptide, HBcAg 0.67 ug/ml

Binder | OD [OD]
VKPGASVKISCKASGYSFTG (also called Peptide # 25) [VKPGASVKISCKASGYSFTG (SEQ. ID. No. 28)] | 0.036
LAVSLGQRATISCRASQSVS [LAVSLGQRATISCRASQSVS (SEQ. ID. No. 16)] | 0.028

target: T2, Full length recombinant HBcAg (rHBcAg) …; experiment: EIA, support-bound peptide, HBcAg 20 ug/ml

Binder | OD [OD]
VKPGASVKISCKASGYSFTG (also called Peptide # 25) [VKPGASVKISCKASGYSFTG (SEQ. ID. No. 28)] | 2.65
LAVSLGQRATISCRASQSVS [LAVSLGQRATISCRASQSVS (SEQ. ID. No. 16)] | 2.63

target: T2, Full length recombinant HBcAg (rHBcAg) …; experiment: EIA, peptide coated 25 ug/ml, HBcAg 10 ug/ml

Binder | OD [OD]
VKPGASVKISCKASGYSFTG (also called Peptide # 25) [VKPGASVKISCKASGYSFTG (SEQ. ID. No. 28)] | 0.569
LAVSLGQRATISCRASQSVS [LAVSLGQRATISCRASQSVS (SEQ. ID. No. 16)] | 0.276

target: T2, Full length recombinant HBcAg (rHBcAg) …; experiment: competition EIA, HBcAg coated 5 ug/ml, peptide 12.5 ug/ml together with mAb 4-2 (competitor); OD of bound mAb

Binder | OD at 490 nm [OD]
VKPGASVKISCKASGYSFTG (also called Peptide # 25) [VKPGASVKISCKASGYSFTG (SEQ. ID. No. 28)] | 1.21
LAVSLGQRATISCRASQSVS [LAVSLGQRATISCRASQSVS (SEQ. ID. No. 16)] | 1.04

target: T2, Full length recombinant HBcAg (rHBcAg) …; experiment: competition EIA, HBcAg coated 1 ug/ml, peptide 6.25 ug/ml before mAb 4-2 (competitor); OD of bound mAb

Binder | OD at 490 nm [OD]
VKPGASVKISCKASGYSFTG (also called Peptide # 25) [VKPGASVKISCKASGYSFTG (SEQ. ID. No. 28)] | 0.329
LAVSLGQRATISCRASQSVS [LAVSLGQRATISCRASQSVS (SEQ. ID. No. 16)] | 0.35

target: T2, Full length recombinant HBcAg (rHBcAg) …; experiment: competition EIA, HBcAg coated 1 ug/ml, peptide 12.5 ug/ml before mAb 4-2 (competitor); OD of bound mAb

Binder | OD at 490 nm [OD]
VKPGASVKISCKASGYSFTG (also called Peptide # 25) [VKPGASVKISCKASGYSFTG (SEQ. ID. No. 28)] | 0.339
LAVSLGQRATISCRASQSVS [LAVSLGQRATISCRASQSVS (SEQ. ID. No. 16)] | 0.365

target: T2, Full length recombinant HBcAg (rHBcAg) …; experiment: EIA, peptide coated 12.5 ug/ml, HBcAg 10 ug/ml

Binder | OD [OD]
VKPGASVKISCKASGYSFTG (also called Peptide # 25) [VKPGASVKISCKASGYSFTG (SEQ. ID. No. 28)] | 0.423
LAVSLGQRATISCRASQSVS [LAVSLGQRATISCRASQSVS (SEQ. ID. No. 16)] | 0.24

target: T2, Full length recombinant HBcAg (rHBcAg) …; experiment: EIA, support-bound peptide, HBcAg 2 ug/well

Binder | OD at 405 nm [OD]
VKPGASVKISCKASGYSFTG (also called Peptide # 25) [VKPGASVKISCKASGYSFTG (SEQ. ID. No. 28)] | 3.13
LAVSLGQRATISCRASQSVS [LAVSLGQRATISCRASQSVS (SEQ. ID. No. 16)] | 3.11

target: T1, truncated recombinant form of HBeAg …; experiment: EIA, support-bound peptide, HBeAg 0.67 ug/ml

Binder | OD [OD]
VKPGASVKISCKASGYSFTG (also called Peptide # 25) [VKPGASVKISCKASGYSFTG (SEQ. ID. No. 28)] | 0.022
LAVSLGQRATISCRASQSVS [LAVSLGQRATISCRASQSVS (SEQ. ID. No. 16)] | 0.024

target: T2, Full length recombinant HBcAg (rHBcAg) …; experiment: competition EIA, HBcAg coated 5 ug/ml, peptide 200 ug/ml together with mAb 4-2 (competitor); OD of bound mAb

Binder | OD at 490 nm [OD]
VKPGASVKISCKASGYSFTG (also called Peptide # 25) [VKPGASVKISCKASGYSFTG (SEQ. ID. No. 28)] | 0.302
LAVSLGQRATISCRASQSVS [LAVSLGQRATISCRASQSVS (SEQ. ID. No. 16)] | 0.859

target: T2, Full length recombinant HBcAg (rHBcAg) …; experiment: competition EIA, HBcAg coated 1 ug/ml, peptide 50 ug/ml before mAb 4-2 (competitor); OD of bound mAb

Binder | OD at 490 nm [OD]
VKPGASVKISCKASGYSFTG (also called Peptide # 25) [VKPGASVKISCKASGYSFTG (SEQ. ID. No. 28)] | 0.312
LAVSLGQRATISCRASQSVS [LAVSLGQRATISCRASQSVS (SEQ. ID. No. 16)] | 0.364

target: T2, Full length recombinant HBcAg (rHBcAg) …; experiment: competition EIA, HBcAg coated 5 ug/ml, peptide 6.25 ug/ml together with mAb 4-2 (competitor); OD of bound mAb

Binder | OD at 490 nm [OD]
VKPGASVKISCKASGYSFTG (also called Peptide # 25) [VKPGASVKISCKASGYSFTG (SEQ. ID. No. 28)] | 1.18
LAVSLGQRATISCRASQSVS [LAVSLGQRATISCRASQSVS (SEQ. ID. No. 16)] | 0.979

target: T2, Full length recombinant HBcAg (rHBcAg) …; experiment: EIA, peptide coated 50 ug/ml, HBcAg 10 ug/ml

Binder | OD [OD]
VKPGASVKISCKASGYSFTG (also called Peptide # 25) [VKPGASVKISCKASGYSFTG (SEQ. ID. No. 28)] | 0.766
LAVSLGQRATISCRASQSVS [LAVSLGQRATISCRASQSVS (SEQ. ID. No. 16)] | 0.434

target: T1, truncated recombinant form of HBeAg …; experiment: EIA, support-bound peptide, HBeAg 5 ug/ml

Binder | OD [OD]
VKPGASVKISCKASGYSFTG (also called Peptide # 25) [VKPGASVKISCKASGYSFTG (SEQ. ID. No. 28)] | 0.05
LAVSLGQRATISCRASQSVS [LAVSLGQRATISCRASQSVS (SEQ. ID. No. 16)] | 0.038

target: T2, Full length recombinant HBcAg (rHBcAg) …; experiment: competition EIA, HBcAg coated 1 ug/ml, peptide 100 ug/ml before mAb 4-2 (competitor); OD of bound mAb

Binder | OD at 490 nm [OD]
VKPGASVKISCKASGYSFTG (also called Peptide # 25) [VKPGASVKISCKASGYSFTG (SEQ. ID. No. 28)] | 0.274
LAVSLGQRATISCRASQSVS [LAVSLGQRATISCRASQSVS (SEQ. ID. No. 16)] | 0.345

target: T2, Full length recombinant HBcAg (rHBcAg) …; experiment: EIA, support-bound peptide, HBcAg 5 ug/ml

Binder | OD [OD]
VKPGASVKISCKASGYSFTG (also called Peptide # 25) [VKPGASVKISCKASGYSFTG (SEQ. ID. No. 28)] | 0.359
LAVSLGQRATISCRASQSVS [LAVSLGQRATISCRASQSVS (SEQ. ID. No. 16)] | 0.501

target: T1, truncated recombinant form of HBeAg …; experiment: EIA, support-bound peptide, HBeAg 1.25 ug/ml

Binder | OD [OD]
VKPGASVKISCKASGYSFTG (also called Peptide # 25) [VKPGASVKISCKASGYSFTG (SEQ. ID. No. 28)] | 0.034
LAVSLGQRATISCRASQSVS [LAVSLGQRATISCRASQSVS (SEQ. ID. No. 16)] | 0.023

target: T2, Full length recombinant HBcAg (rHBcAg) …; experiment: competition EIA, HBcAg coated 5 ug/ml, peptide 50 ug/ml together with mAb 4-2 (competitor); OD of bound mAb

Binder | OD at 490 nm [OD]
VKPGASVKISCKASGYSFTG (also called Peptide # 25) [VKPGASVKISCKASGYSFTG (SEQ. ID. No. 28)] | 1.22
LAVSLGQRATISCRASQSVS [LAVSLGQRATISCRASQSVS (SEQ. ID. No. 16)] | 0.998

target: T2, Full length recombinant HBcAg (rHBcAg) …; experiment: EIA, support-bound peptide, HBcAg 1.25 ug/ml

Binder | OD [OD]
VKPGASVKISCKASGYSFTG (also called Peptide # 25) [VKPGASVKISCKASGYSFTG (SEQ. ID. No. 28)] | 0.058
LAVSLGQRATISCRASQSVS [LAVSLGQRATISCRASQSVS (SEQ. ID. No. 16)] | 0.079

target: T1, truncated recombinant form of HBeAg …; experiment: EIA, support-bound peptide, HBeAg 20 ug/ml

Binder | OD [OD]
VKPGASVKISCKASGYSFTG (also called Peptide # 25) [VKPGASVKISCKASGYSFTG (SEQ. ID. No. 28)] | 0.319
LAVSLGQRATISCRASQSVS [LAVSLGQRATISCRASQSVS (SEQ. ID. No. 16)] | 0.393

target: T2, Full length recombinant HBcAg (rHBcAg) …; experiment: competition EIA, HBcAg coated 5 ug/ml, peptide 25 ug/ml together with mAb 4-2 (competitor); OD of bound mAb

Binder | OD at 490 nm [OD]
VKPGASVKISCKASGYSFTG (also called Peptide # 25) [VKPGASVKISCKASGYSFTG (SEQ. ID. No. 28)] | 1.2
LAVSLGQRATISCRASQSVS [LAVSLGQRATISCRASQSVS (SEQ. ID. No. 16)] | 1.03
